Reference: patent publication CN101896199A

Assays:
[1] = target: HBV表面抗原 (hepatitis B virus surface antigen) (乙型肝炎病毒(HBV)); assay: ELISA titre (method of Shin YW et al. 2007); formulation after 3 months
[2] = target: HBV表面抗原 (hepatitis B virus surface antigen) (乙型肝炎病毒(HBV)); assay: ELISA titre (method of Shin YW et al. 2007); formulation after 3 months, 25℃, 60% R.H.
[3] = target: HBV表面抗原 (hepatitis B virus surface antigen) (乙型肝炎病毒(HBV)); assay: ELISA titre (method of Shin YW et al. 2007); formulation at 0 weeks, 25℃, 60% R.H.
[4] = target: HBV表面抗原 (hepatitis B virus surface antigen) (乙型肝炎病毒(HBV)); assay: ELISA titre (method of Shin YW et al. 2007); formulation after 6 months, 25℃, 60% R.H.

Measured: 滴度(IU/mg)

Hepabig基因 (从细胞系HBAb-49, 登录号KCLRF-BP-00054, 产生的针对HBV表面抗原的人抗体) (antibody)
> 2000 IU/mg: all assays above
